Experimental data from US20190367592A1 (AC IMMUNE, published 2019).
Residue numbers refer to the chain shown, from its start. Names and notes keep the numbering of the source. Values belong to the binder of their own block, whether it stands above or below them. Where no end group is shown, it is not given here.

Columns and labels:
[1] = biological target: T1, AVI-tag biotinylated oligomeric flTau (human, UniProt P10636-8 1-441, site-specific biotin on AVI-tag); assay: capture ELISA, antibody on anti-IgG plate, biotinylated oligoTau titrated, O.D.
T1 construct: also called oligoTau; oligomeric Tau
Procedure: (§1) For the oligoTau and monoTau capture ELISAs, antibodies contained in serum-free sterile hybridoma supernatants were immobilized on an anti-IgG coated plate at 500-fold dilution, followed by the incubation of oligoTau or monoTau, both with site-specific biotinylation via an AVI-tag. The target incubations started at 5 μg/mL and then were diluted 8- or 16-fold. Streptavidin-HRP and ABTS substrate was used for signal quantitation in a plate reader (Tecan, Switzerland). Results are expressed as O.D.

[2] = biological target: T2, AVI-tag biotinylated monomeric flTau (human, UniProt P10636-8 1-441, site-specific biotin on AVI-tag); assay: capture ELISA, antibody on anti-IgG plate, biotinylated monoTau titrated, O.D.
T2 construct: also called monoTau; monomeric Tau
Procedure: as §1

[3] = biological target: T3, full-length human Tau (flTau) (human, UniProt P10636-8 1-441); assay: indirect ELISA, flTau coated, hybridoma supernatant diluted, O.D.
T3 construct: range 1-441; bought (SignalChem); also called human Tau-441
Procedure: Coating was done overnight in phosphate-buffered saline (PBS) at 4° C. Plates were washed thoroughly with 0.05% Tween-20/PBS and then blocked with 1% bovine serum albumin (BSA) in 0.05% Tween-20/PBS for 1 hr at 37° C. The antibody contained in the hybridoma supernatant was then added at the indicated dilutions, and incubated for 2 hrs at 37° C. after which the plates were washed as described previously.
For the indirect ELISAs, an AP-conjugated anti-mouse IgG secondary antibody (Jackson ImmunoResearch Laboratories, United Kingdom) was added at 1/6000 dilution in 0.05% Tween-20/PBS for 2 hr at 37° C. After the final wash, plates were incubated with p-nitrophenyl phosphate disodium hexahydrate (pNPP; Sigma-Aldrich, Switzerland) phosphatase substrate solution, and read at 405 nm using an ELISA plate reader (Tecan, Switzerland). Results are expressed as optical densities (O.D.).

[4] = biological target: T3, full-length human Tau (flTau); assay: SPR, hybridoma Ab on anti-IgG chip, flTau analyte
Procedure: Affinity of non-purified antibodies in serum-free hybridoma supernatants was estimated by surface plasmon resonance using a Biacore T-100 instrument (GE Healthcare, United Kingdom). Antibodies were immobilized onto an anti-IgG biosensor chip, and flTau (SignalChem, Canada) was used as the target analyte. Kinetic analysis was done using a 1:1 Langmuir fit model.
For affinity measurements to flTau, antibodies were measured using SPR on a Biacore instrument, with the KDs determined. Biacore affinity measurements were done by immobilizing antibodies on an anti-IgG chip and using flTau as the target analyte.

Tau fragment 1-15 = biological target: T4, Tau fragment 1-15 (human, UniProt P10636-8 1-15); assay: ELISA on Tau 15-mer peptides, O.D.; conditions of this panel not given
T4 construct: range 1-15
T4 peptide (looked up): MAEPRQEFEVMEDHA

Tau fragment 28-42 = biological target: T5, Tau fragment 28-42 (human, UniProt P10636-8 28-42, not fully specified); assay: as above
T5 construct: range 28-42
T5 peptide (looked up): GYTMHQDQEGDTDAG

MAPT(10-24) = biological target: T6, MAPT(10-24) (human, also: biotinylated, site not given here); assay: as above
T6 construct: also called Tau fragment 10-24
T6 peptide: VMEDHAGTYGLGDRK

Tau fragment 19-33 = biological target: T7, Tau fragment 19-33 (human, UniProt P10636-8 19-33, not fully specified); assay: as above
T7 construct: range 19-33
T7 peptide (looked up): GLGDRKDQGGYTMHQ

Tau fragment 37-51 = biological target: T8, Tau fragment 37-51 (human, UniProt P10636-8 37-51); assay: as above
T8 construct: range 37-51
T8 peptide (looked up): GDTDAGLKESPLQTP

[5] = biological target: T9, recombinant human Tau monomer, 2N4R isoform (amino acids 2-441) (human, UniProt P10636-8 2-441); assay: SPR, mIgG2a captured, Tau monomer analyte, 1:1 fit
T9 construct: range 2-441; N-terminal His-tag removed with TEV protease; also called monomeric Tau
In short: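 Antibodies in mIgG2a format captured on anti-mouse IgG surface at 1 μg/ml (30 or 45 s) or 0.1 μg/ml (70 or 150 s), 10 μl/min, in HBSP (10 mM HEPES pH7.4, 150 mM NaCl, 0.05% Tween 20). Tau monomer flowed as analyte; association 180-480 s, dissociation 300-600 s, 1:1 fit.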

0N4R Tau = biological target: T10, 0N4R Tau (human, UniProt P10636-6 1-383); assay: indirect or sandwich ELISA on recombinant human Tau isoforms
T10 construct: also called 0N-Tau

[6] = biological target: T9, recombinant human Tau monomer, 2N4R …; assay: SPR, human Fab capture kit, Tau monomer analyte
Procedure: Affinity was assessed at 25° C. using a Biacore T200 instrument, the GE Biacore human FAb capture kit and a CM5 Series S chip. The hIgG were diluted to 0.5 μg/ml in 10 mM HEPES pH7.4, 150 mM NaCl, 0.05% Tween 20 (running buffer, HBSP) and captured at a flow rate of 10 μl/min for 180 seconds. Kinetic data was collected for Human Tau monomer injected at concentrations of 0, 0.4, 1.2, 3.7, 11, 11, 33 and 100 nM in HBSP, using a flow rate of 30 μl/min, a 300 second association phase and a 600 second dissociation phase. Between cycles the surface was regenerated using two sequential 60 second injections of 10 mM Glycine pH 2.1. Data was fit to a 1:1 binding model.

T3 sequence (P10636 other isoform, or with tags, fused parts or gaps limits assumed): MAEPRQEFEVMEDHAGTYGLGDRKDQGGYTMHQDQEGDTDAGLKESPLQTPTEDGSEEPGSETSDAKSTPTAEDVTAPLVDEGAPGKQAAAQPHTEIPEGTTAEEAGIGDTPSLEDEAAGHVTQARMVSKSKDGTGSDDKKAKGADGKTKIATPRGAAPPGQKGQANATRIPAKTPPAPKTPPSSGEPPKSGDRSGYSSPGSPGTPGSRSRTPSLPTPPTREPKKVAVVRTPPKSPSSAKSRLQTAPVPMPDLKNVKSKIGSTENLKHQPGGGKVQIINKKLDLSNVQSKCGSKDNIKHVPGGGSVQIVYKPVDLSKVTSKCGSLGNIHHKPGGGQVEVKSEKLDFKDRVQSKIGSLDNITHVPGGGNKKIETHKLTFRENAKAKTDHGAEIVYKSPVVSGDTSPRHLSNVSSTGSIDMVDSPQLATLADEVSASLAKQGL
T10 sequence (P10636 other isoform, or with tags, fused parts or gaps limits assumed): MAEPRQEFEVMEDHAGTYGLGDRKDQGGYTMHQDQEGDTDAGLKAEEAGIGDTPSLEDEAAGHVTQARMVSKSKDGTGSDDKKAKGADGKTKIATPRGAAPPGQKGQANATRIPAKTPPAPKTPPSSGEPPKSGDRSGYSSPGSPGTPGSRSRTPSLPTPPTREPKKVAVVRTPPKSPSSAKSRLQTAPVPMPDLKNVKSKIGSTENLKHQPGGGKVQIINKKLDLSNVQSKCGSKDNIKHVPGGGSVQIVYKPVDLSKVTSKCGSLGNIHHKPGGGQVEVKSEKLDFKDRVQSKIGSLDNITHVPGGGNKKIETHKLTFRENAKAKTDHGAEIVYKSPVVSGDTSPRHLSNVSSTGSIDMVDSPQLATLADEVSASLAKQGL
T9 sequence (P10636 other isoform, or with tags, fused parts or gaps limits assumed): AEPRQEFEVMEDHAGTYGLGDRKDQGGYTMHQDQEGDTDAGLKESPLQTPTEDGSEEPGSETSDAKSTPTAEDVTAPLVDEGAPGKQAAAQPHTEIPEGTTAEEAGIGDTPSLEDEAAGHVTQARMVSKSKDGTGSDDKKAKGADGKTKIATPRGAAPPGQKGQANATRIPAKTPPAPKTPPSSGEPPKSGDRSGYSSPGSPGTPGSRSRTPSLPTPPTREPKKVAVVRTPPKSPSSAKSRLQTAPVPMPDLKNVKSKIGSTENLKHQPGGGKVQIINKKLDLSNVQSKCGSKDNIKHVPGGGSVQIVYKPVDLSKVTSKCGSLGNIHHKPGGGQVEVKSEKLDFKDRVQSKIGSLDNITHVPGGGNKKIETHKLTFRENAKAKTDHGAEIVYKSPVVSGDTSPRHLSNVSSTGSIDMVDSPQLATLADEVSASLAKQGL

B2: 19H6-F7 (antibody, mouse IgG2a, V domains shown)
VH: EVQLVESGGDLVKPGGSLKLSCAASGFTFSSYGMSWVRQTPDKRLEWVATISSGGTYTYYPDSVKGRFTISRDNAKNTLYLQMSSLKSEDTAMYYCAPSYDGAMDYWGQGTSVTVSS
VL: DVLMTQTPLSLPVSLGDQASISCRSSQSIVHSNGNTYLEWYLQKPGQSPKLLIYKVSNRFSGVPDRFSGSGSGTDFTLKISRVEAEDLGVYYCFQGSLVPWTFGGGTKLEIK
EC50 (read off the curve) [1]: ~0.2 µg/mL
Kd [4]: 39 nM
binding result (Tau fragment 1-15): no binding (tested: not given)
binding result (Tau fragment 28-42): no binding (tested: not given)
binding result (MAPT(10-24)): binds
binding result (Tau fragment 19-33): no binding (tested: not given)
binding result (Tau fragment 37-51): no binding (tested: not given)
Kd [5]: 10 nM
koff [5]: 0.002 s⁻¹
kon [5]: 200000 M⁻¹ s⁻¹

B3: 3A4-H4 (antibody, mouse IgG2a, V domains shown)
VH: B2 VH with Y95F, P98T
VL: B2 VL with S28N, S97T
EC50 (read off the curve) [1]: ~0.09 µg/mL
Kd [4]: 7.8 nM
binding result (Tau fragment 1-15): no binding (tested: not given)
binding result (Tau fragment 28-42): no binding (tested: not given)
binding result (Tau fragment 19-33): no binding (tested: not given)
binding result (Tau fragment 37-51): no binding (tested: not given)
Kd [5]: 12 nM
koff [5]: 0.0003 s⁻¹
kon [5]: 30000 M⁻¹ s⁻¹

B5: 12A10-E8 (antibody, V domains shown)
VH: QIQLVQSGPELKKPGETVKISCKASGYTFTNYGMNWVKQAPGKGLKWMGWINMYTGEPTYGDDFKGRFVFSLETSVSTVYLQINNLKKEDTATFFCARGGRPDYWGQGTSVTVSS
VL: B2 VL with S57F, S81N, F94L, L98H, W101Y
notes: hybridoma supernatant
Kd [4]: 0.8 nM
binding result (0N4R Tau): no binding (tested: not given)

B7: 72E12-H9 (antibody, V domains shown)
VH: EVKLEESGGGLVQPGGSMKLSCVASGFTFSNYWMNWVRQSPEKGLEWVAQIRLKSDNYATHYAESVKGRFTISRDDSKSSVYLQMNNLRAEDTGIYYCAGYFYGGYFDVWGTGTTVTVSS
VL: ELVLTQSPTTMAASPGKKITITCSASSSISSNYLHWYQQKPGFSPKLLIYRTSNLASGVPARFSGSGSGTSYSLTIGTMEAEDVATYYCQQGSSLPFTFGSGTKLEIK
notes: hybridoma supernatant
Kd [4]: 2 nM
binding result (0N4R Tau): no binding (tested: not given)

B8: 30D12-B5 (antibody, V domains shown)
VH: EVQLQQSGAELVKPGASVKLSCTTSGFNIKDTYMHWVKQRPEQGLEWIGGIDPANGNTKYDPKFQGKATITADTSSNTAYLQLSSLTSEDTAVYYCAHGNFVYWGQGTLVTVSA
VL: DVVMTQTPLSLSVTIGQPASISCKSSQSLLYSNGKTYLNWFQQRPGQAPKHLMYQVSKLDPGIPDRFSGSGSETDFTLKISRVEAEDLGVYYCLQGTYYPLTFGAGTNLELK
notes: hybridoma supernatant
Kd [4]: 2 nM
binding result (0N4R Tau): no binding (tested: not given)

Continued, values first:

binding result [1]: binds
binding result [2]: binds
binding result [3]: binds
B1: 14F5-D9 (antibody, V domains shown)
VH: EVKLVESGGGLVQPGGSLRLSCATSGFTFSDFYMEWVRQSPGKRLEWIAASKNKANDYTTEYNASVKDRFFVSRDTSQSILYLQMNALRAEDTAIYYCARDALGTVFAYWGQGTLVTVSA
VL: DVVMTQTPLSLPVSLGDQASISCRSSQSLVHSNGNTYLHWYLQKPGQSPKLLIYKVFNRFSGVPDRFSGSGSGTDFTLKISRVEAEDLGVYFCSQSTLVPLTFGAGTKLELK
notes: hybridoma supernatant

binding result [1]: binds
binding result [2]: binds
B4: 73H6-B8 (antibody, V domains shown)
VH: QVQLKESGPGLVAPSQSLSITCTISGFSLTSYGVHWVRQPPGKGLEWLVVIWSDGSTTYNSALKSRLSISKDNSKSQVFLKMNSLQTDDTAMYYCARQGGFITTAYYAMDYWGQGTSVTVSS
VL: DIVMSQSPSSLAVSAGEKVTMSCKSSQSLLNSRTRKNYLAWYQQKPGQSPKLLIYWASTRESGVPDRFTGSGSGTDFTLTISSVQAEDLAVYYCKQSYNLYTFGGGTKLEIK
notes: hybridoma supernatant

binding result (0N4R Tau): no binding (tested: not given)
Kd [5]: 171 nM
koff [5]: 0.04 s⁻¹
kon [5]: 200000 M⁻¹ s⁻¹
B6: 55E7-F11 (antibody, mouse IgG2a, V domains shown)
VH: B7 VH
VL: B7 VL

Kd [4]: 0.5 nM
binding result (0N4R Tau): no binding (tested: not given)
B9: 77D1-D2 (antibody, V domains shown)
VH: EVQLQQSVAELVRPGASVTLSCTSSGFNIKNTYMHWVIQRPEQGLEWIGKIDPAIVNTKYAPKFQGKATITADTSSNTAYLQLSSLTSEDTGIYYCAEGALLYWGLGTSVTVSS
VL: B8 VL with Y31H, F41L, H51L, Q55L, L59V, L94F, L101H, A105G, N108K, L111I
notes: hybridoma supernatant

Kd [4]: 4.7 nM
binding result (0N4R Tau): no binding (tested: not given)
B10: 211G6-B6 (antibody, V domains shown)
VH: QVQLKESGPGLVAPSQSLSITCTVSGFSLTSYAISWVRQPPGKGLEWLGVIWTGGGTNYNSALKSRLSITKDNSKNQVFFRMNSLQTDDTARYYCARKKLYDYDGGYFFDYWGQGTTLTVSS
VL: DIVMSQSPSSLAMSVGEKVTMSCKSNQSLLYSSNQKNYLAWYQQKPGQSPKLLIYWASTRESGVPDRFTGSGSGTDFTLTISSVKAEDLAVYYCHQYYSYPWTFGGGTKLEIK

Kd [6]: 1.4 nM
koff [6]: 0.0009 s⁻¹
kon [6]: 600000 M⁻¹ s⁻¹
B11: hu37D3-H9.v28.A4 hIgG4.S228P.YTE (antibody, V domains shown)
VH: EVQLVESGGGLVQPGGSLRLSCAASGLIFRSYGMSWVRQAPGKGLEWVATINSGGTYTYYPDSVKGRFTISRDNSKNTLYLQMNSLRAEDTAVYYCANSYSGAMDYWGQGTLVTVSS
VL: DDVLTQTPLSLPVTPGQPASISCRSSQSIVHSNGNTYLEWYLQKPGQSPQLLIYKVSNRFSGVPDRFSGSGSGTDFTLKISRVEAEDVGVYYCFQGSLVPWTFGQGTKVEIKR
notes: also called hu37D3.v28.A4 hIgG4-S228P.YTE
